Data taken from article PMC4975651.

How the values were obtained:
Test in all cases: ITC
H3K4me0 (1-25aa) peptide = H3K4me0 (1-25aa) peptide (UniProt P68431)
H3K4me0K14ac peptide = target: H3K4me0K14ac peptide
[1] = target: H3K4me0 peptide (ITC, Figures 5D and 5E) (UniProt P68431)

fold increase of binding activity against ZMYND8-PBP (H3K4me0 (1-25aa) peptide) [fold] | Kd (H3K4me0K14ac peptide) [µM] | Kd [1] [µM] | Substance
11 |  |  | ZMYND8-PBP F109D (domain or fragment)
 | 1 | 7.2 | ZMYND8-PBP (93-426aa) (domain or fragment)
 |  | 15 | ZMYND8-PB (ITC) (domain or fragment)
